This note sets out measurements from the nanobody polyreactivity screen of Harvey et al. (2022).

The nature of the series: yeast display, Sf9 membrane polyspecificity reagent, FACS + sequencing; frameworks hold sequencing errors. A digest of the protocol: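 Sorting gates, low and high (top ~1%), were placed on anti-HA fluorescence to track expression and on streptavidin fluorescence to track reagent binding. A clone's polyreactivity label is taken from the gate it came out of. The reagent was 10% biotinylated, detergent-solubilized Sf9 membrane, applied for 1 hour at 4 °C to galactose-induced yeast display cells.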
As for “QVQLEESGGGLVQAGGSLRLSCAASGRIFSGNAKGWYRQAPGKERELVANITSSSNTNYADSVKGRFTISRDNAKNTVYLQMNSLKPEDTAVYYCAKSAHNGYSFYGYDYWGQGTQVTVSS”, the “polyreactivity (PSR sort gate)” value is on record as “low polyreactivity”. For “QVQLEESGGGLVQAGGSLRLSCAASGRIFSYNVMGWYRQAPGKEREFVAAITSNDGSTYYADSVKGRFTISRDNAKNTVYLQMNSLKPEDTAVYYCNADFGPVSLKEPFRDDYWGQGTQVNVSS”, the “polyreactivity (PSR sort gate)” value was “low polyreactivity”. Regarding “QVQLEESGGGLVQAGGSLRLSCAASGRIFTANAMGWYRQAPGKERELVASISYRSGRTRYADSVKGRFTISRDNAKNTVYLQMNSLKPEDTAVYYCATDRGRRYDYWGQGTQVTVSS”, the “polyreactivity (PSR sort gate)” value is recorded as “high polyreactivity”. For “QVQLEESGGGLVQAGGSLRLSCAASGRIFVFYDMGWYRQAPGKERELVATITRSGGRTYYADSVKGRFTISRDNAKNTVYLQMNSLKPEDTAVYYCAARRYGKYDYWGQGTQVTVSS” the value was “low polyreactivity”. In the case of “QVQLEESGGGLVQAGGSLRLSCAASGRIFVSNDMGWYRQAPGKERELVAAITWSDDSTHYADSVKGRFTISRDYAKNTVYLQRNSVKPEDTAVYYCNKQRYYSTWRYDYWGQGTQVTVSS”, the “polyreactivity (PSR sort gate)” value is reported as “low polyreactivity”. As for “QVQLEESGGGLVQAGGSLRLSCAASGRIFWVNVMGWYRQAPGKERELVAAITRGASTYADSVKGRFTISRDNAKNTVYLQLNSLKPEDTAVYYCAVGISDFQYYDYVYWGQGTHVTVSS”, the entry is “high polyreactivity”; as for “QVQLEESGGGLVQAGGSLRLSCAASGRIFYGYAMGWSRQAPGKERELVASISRRGSSTYYADSVKGRFTISRDNAKNTVYLQMNSLKPEDTAVYYCAAGYYPFNYWGQGTQVTVSS”, “high polyreactivity”. Consider “QVQLEESGGGLVQAGGSLRLSCAASGRIIYSNGMGWYRQAPGKERELVAAISSGGSTYYADSVKGRFTISRDNAKNTVYLQMNSLKPEDTAVYYCAADIDYERDRYDYWGQGTQVTVSS”, for which the “polyreactivity (PSR sort gate)” value is “low polyreactivity”. As to “QVQLEESGGGLVQAGGSLRLSCAASGRISAKYAMGWYRKAPGKERELVASISWSGGSTYYADSVKGRFTISRDNAKNTVYLQMNSLKPEDTAVYYCAADLTQQRGVRGMDYWGQGTQVTVSS”, the “polyreactivity (PSR sort gate)” value is reported as “low polyreactivity”.

As for “QVQLEESGGGLVQAGGSLRLSCAASGRTFAFNAMGWYRPAPGKVRELVAVITSRTTRTYYADSVKGRFTISRDNAKNTVYLQMNSLKPEDTAVYYCAAGFRRQSIRFDYWGQGTQVTVSS”, the “polyreactivity (PSR sort gate)” value was “high polyreactivity”.

Turning to “QVQLEESGGGLVQAGGSLRLSCAASGRTFDVYAMGWYRQAPGKEREFVAAINWSSSSTYYADSVKGRFTISRDNAKNTVYLQMNSLKPEDTAVYYCAARYKRYTRFDYWGQGTQVTVSS”, the “polyreactivity (PSR sort gate)” value is reported as “high polyreactivity”. In the case of “QVQLEESGGGLVQAGGSLRLSCAASGRTFKYYAMGWYIQAPGKERELVAAISWSGGDTYYADSVKGRFTISRDNAKNTVYLQMNSLKQEDTAVYYCAKYPWYRYPSYEYWGQGTQVTVSS”, the “polyreactivity (PSR sort gate)” value is given as “high polyreactivity”. As for “QVQLEESGGGLVQAGGSLRLSCAASGRTFRINDMGWYRQAPGKERELVATINSTGSTNYADSVKGRFTISRDNAKNTVYLQMNSLKPEDTAVYYCNAYLYYYRYHYNYWGQGTQVTVSS”, the entry is “low polyreactivity”. As for “QVQLEESGGGLVQAGGSLRLSCAASGRTFSYYSMGCYRKAPGKERELVAAITSGGRTYYADSVKGRFTISRDNAKNTVYLQINSLKPEDTAVYYCAARWYARSLTRFNYWGQGTQVTVSS”, the entry is “high polyreactivity”; as for “QVQLEESGGGLVQAGGSLRLSCAASGRTFYGKAMGWYRNAPGKEWEFVASISYSGTTTYYADSVKGRFTISRDNAKNTVYLKMNSLKPEDTAVYYCAVESYPTDYGPRFGSWGQGTQVTVSS”, “low polyreactivity”. Turning to “QVQLEESGGGLVQAGGSLRLSCAASGRTFYSYAMGWYRQAPGKEREWVAAITSDGGTYYADSVKGRFTISRDNAKNTVYLQMNSLKPEDTAVYYCAAELYYWYYYWGQGTQVTVSS”, the “polyreactivity (PSR sort gate)” value is recorded as “low polyreactivity”. For the sequence “QVQLEESGGGLVQAGGSLRLSCAASGRTFYVNAMGWYRQATGKERELVAAISWSGGSTYYADSVKGRFTISRDNAKNTVYLQINSLKPEDTAVYYCAAEDIEDYEYWGQGTQVTVSS”, the “polyreactivity (PSR sort gate)” value is given as “low polyreactivity”. As for “QVQLEESGGGLVQAGGSLRLSCAASGSIFALYAMGWYRQAPGKERELVAAISYRGGRTYYADSVKARFTISRDYAKNTVYLQMNILKPEDTAVYYCATDFPCKFDFWGQGTQVTVSS”, the entry is “low polyreactivity”. For “QVQLEESGGGLVQAGGSLRLSCAASGSIFDSYARGWNSQAPVQERELVAAISRSGGRTYYADSVKGRFTISRDNAKNTVYLQMNSLKPEDTAVYYCNVVLGWWAPYFYTSGDYWGQGTQVTVSS” the value was “high polyreactivity”. For “QVQLEESGGGLVQAGGSLRLSCAASGSIFGNAMGWYRQAPGKEREFVAAISSSGSSTYYADSVKGRFTISRDNAKNTVYLQMNSLKPEDTAVYYCAKRRRSADPKYDYWGQGTQVTVSS” the value was “high polyreactivity”. With “QVQLEESGGGLVQAGGSLRLSCAASGSIFQSYDMGWYRQAPGKERELVAAISWSGSTTYYADSVKGRFTISRDNAKNTVYLQMNSLKPEDTAVYYSAVDSNPPDWWAVIYGYWGQGTQVTVSS”, the “polyreactivity (PSR sort gate)” value is reported as “low polyreactivity”. On to “QVQLEESGGGLVQAGGSLRLSCAASGSIFRSNAMGWYRQAPGKERELVAAISSSGGSTYYADSVKGRFTISRDKAKNTVYLQMNSLKPEDTAVYYCAARPSGRGYYLLGYWGQGTQVTVSS”, for which the “polyreactivity (PSR sort gate)” value is recorded as “low polyreactivity”. For “QVQLEESGGGLVQAGGSLRLSCAASGSIFSQYAMGWYRQAPGKERELVASITWRGGRTYYADSVKGRFTISRDNAKNTVYLQMNSLKPEDTAVYYCNRVYGAHHYYYGIGTYDYWGQGTQVTVSS”, the “polyreactivity (PSR sort gate)” value is recorded as “high polyreactivity”. As for “QVQLEESGGGLVQAGGSLRLSCAASGSIFSTYAMGWYRQAPGKERELVSAINSGDSTSYADSVKGRFTISRDNAKNTVYLQRNSLKPEDTAVYYCAAKTGGYWYLRRTGRYESWGQGTQVTVSS”, the entry is “low polyreactivity”; as for “QVQLEESGGGLVQAGGSLRLSCAASGSIFTANAMGWYRQAHGKERELVAAINRSGGRTYADSVKGRFTISRDNAKNTVYLQMNSLKPEDTAVYYCAAVGHVYKGHDFGYWGQGTQVTVSS”, “low polyreactivity”; as for “QVQLEESGGGLVQAGGSLRLSCAASGSIFTDYAMGSYGQAPGKERELVAAITSGGSTNYADSVKGRFTISRDNAKNTVYLQMNSLKPEDTAVYYCNADDYWLDSWSSDLWYDYWGQGTQVTVSS”, “low polyreactivity”. As for “QVQLEESGGGLVQAGGSLRLSCAASGSIFVRNAMGWYRQAPGKERELVAAISRSGSSTYYADSVKGRFTISRDNAKNTVYLQMNSLKPEDTAVYYCAKRRPALRWIYYYWGQGTQVTVSS”, the “polyreactivity (PSR sort gate)” value is reported as “high polyreactivity”. As for “QVQLEESGGGLVQAGGSLRLSCAASGSIFVSVTMGWYRQAPGKERELVASIGRGSTTNHADSVKGRFTISRDNAKNIVYLLMNSLKPEDTAVYYCAALESYGKYHGYWGQGTQVTVSS”, the entry is “low polyreactivity”; as for “QVQLEESGGGLVQAGGSLRLSCAASGSIFYPYAMGWYRQAPGKERELVAAISGRGGNTYYADSVKGRFTISRDIAKNTVYLQMNSLKPEDSAVYDCAADRYYWSLYGYDYWGQGTQVTVSA”, “high polyreactivity”; as for “QVQLEESGGGLVQAGGSLRLSCAASGSIFYVNAMGWYRQAPGKERELVAAITSSGGSTYYADSVKGRFTISRDNAKNTVYLQMNSLIPEDTAVYYCAVDVYPGVFVEEGEYWGQGTQVTVSS”, “low polyreactivity”. For “QVQLEESGGGLVQAGGSLRLSCAASGSIFYYNAMGWYRQAPGTERELVAAIRRSGGRTYYADSVKGRFTISRDNAKNSVYLQMNSLKPEDTAVYYCAAVHYDRVTCQVDNDYWGQGTQVTVSS” the value was “high polyreactivity”. “QVQLEESGGGLVQAGGSLRLSCAASGSIIYENTMGWYRQAPGKERELVAAISASGGSTEYADSVKGRFTISRDNEKNTVYLQMKSLKPEDTGVYYCAADACAFYFGGDYWGLGTQVTVSS”: the “polyreactivity (PSR sort gate)” value is listed as “low polyreactivity”. For “QVQLEESGGGLVQAGGSLRLSCAASGSMFTRYAKGWYRQAPWKERELVAAISTSGGSTYYADSVKGRFTISRDNAKNTVYLQMTSLKPEDTAVYYCAADDQRRSGYYSWGQGTQVTVSS” the value was “high polyreactivity”; for “QVQLEESGGGLVQAGGSLRLSCAASGSNAMGWYRQAPGKERELVAVITSRGGSTYYADSVKGRFTISRDNAKNTVYLQMNSLKPEDTAVYYCAKAWYVRGTWSVHVRYGYWGQGTQVTVSS”, “high polyreactivity”. As for “QVQLEESGGGLVQAGGSLRLSCAASGSTFESYAMGWYRQAPGKERELVATITRRSTRTYYADSVKGRFTISRDNAKNTVYLQMNSLKPEDTAVYYCAARVYTVRAIGMGYWGQGTQVTVSS”, the entry is “high polyreactivity”; as for “QVQLEESGGGLVQAGGSLRLSCAASGSTFLLNAMGWYRQAPGKERELVAAITSSGGTNYADSVKGRFTISRDNAKNTVYLQMNSLKPEDTAVYNCYTRYSPGYQGTEVDYWGQGTQVTVSS”, “low polyreactivity”. For “QVQLEESGGGLVQAGGSLRLSCAASGSTFNYYAMGWYRTATGKERELVAAITGSGTSTYYADSVKGRFTISRDNAKNTVYLQMNSLKPEDTAVYYCNARYRPRQRPEGGYWGQGTQVTVSS” the value was “high polyreactivity”; for “QVQLEESGGGLVQAGGSLRLSCAASGSTFQRYAIGWYRQAPGKERELVAAISYRAGRRYYADSVKGRFTISRDNAKNTVYLQMNSLKPEDTAVYYCAAKNQGYQYDYWGQGTQVTVSS”, “high polyreactivity”. As for “QVQLEESGGGLVQAGGSLRLSCAASGSTFSDNAMGWYRQAPGKERELVAAISTGTSTYADSVKGRFTISRDNAKNTVYLQMNSLKPEDTAVYYCAADVGIRPLNYHPYNYWGQGTQVTVSS”, the “polyreactivity (PSR sort gate)” value was “low polyreactivity”. As for “QVQLEESGGGLVQAGGSLRLSCAASGSTFSGYAMGWYRQATGKDRELVAAITSSGGRTYYADSVKGRFTISRDKAKNTVYLQMNSLKPEDTAVYYCAALYYHEYDYWGQGTQVTVSS”, the entry is “low polyreactivity”; as for “QVQLEESGGGLVQAGGSLRLSCAASGSTFTPYAMGWYRQAPGKERELVAAISWSGGSTYYADSVKGRFTISRDNAKNTVYLQMNSLKPEDTAVYYCAATYSYRTRAWGWGNYDYWGQGTQVTVSS”, “high polyreactivity”.
